Experimental findings from patent publication US20040072268A1 (published 2004) are described below.

Experiment [1] has as its target T1, Jab1/CSN5 subunit of signalosome, recombinant (UniProt Q92905 1-334, limits assumed).
T1 construct: Produced in recombinant form as a control JAMM domain protein; the construct is not described
The experiment is described as follows: protein-protein interaction assay with GST-BRCA1 fragments. How it is done: (§1) Recombinant BRCA1 and BARD1 was purified as described (Chen, et al. (2002) J. Biol. Chem. 277:22085-22092). […] Gluthatione-sepharose beads (Pharmacia, Peapack, N.J.), previously equilibrated in binding buffer, were added to the samples and inverted for an additionnal 2 hours at 4° C. Beads were collected by centrifugation at 2000×g, 30 seconds, washed several times in binding buffer containing 500 mM KCl and 0.1% NP40 and resuspended in 2× SDS loading buffer. Proteins were resolved by SDS-PAGE and western blot analysis was performed using anti-FLAG® antibodies (SIGMA, St. Louis, Mo.).

Experiment [2] deals with T2, (His)6-FLAG®-BRCC36 protein (Homo sapiens, UniProt P46736 1-316).
T2 construct: Produced in bacteria and purified; also called recombinant BRCC36; C6.1A; not shown: (His)6 and FLAG tags
Kind of experiment: GST pull-down: 5 µg (His)6-FLAG-BRCC36 with GST-BRCA1 fragment, anti-FLAG western blot. How it is done: as §1
(A western blot detects proteins with antibodies after separation by electrophoresis.)

A further experiment has as its target T3, truncated BRCA1 (1-509) (Homo sapiens (Human), UniProt P38398 1-509).
T3 construct: Stably expressed in a 293-derived cell line; keeps the nuclear localization signal and the Ring domain; also called BRCA1 truncation
The experiment is described as follows: affinity purification of the truncated BRCA1 complex from a stable 293-derived cell line (co-purification; may be indirect).

T1 sequence (Q92905 whole entry, the tested form may be a part): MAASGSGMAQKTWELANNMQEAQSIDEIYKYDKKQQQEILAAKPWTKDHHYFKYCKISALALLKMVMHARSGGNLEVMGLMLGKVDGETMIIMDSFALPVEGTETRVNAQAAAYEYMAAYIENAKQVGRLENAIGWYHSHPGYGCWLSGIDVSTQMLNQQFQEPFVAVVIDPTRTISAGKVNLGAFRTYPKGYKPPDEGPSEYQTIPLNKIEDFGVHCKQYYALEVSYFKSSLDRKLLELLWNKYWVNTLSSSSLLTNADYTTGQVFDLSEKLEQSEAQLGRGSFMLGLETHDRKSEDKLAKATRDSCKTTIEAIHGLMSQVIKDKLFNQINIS
T2 sequence (P46736 whole entry): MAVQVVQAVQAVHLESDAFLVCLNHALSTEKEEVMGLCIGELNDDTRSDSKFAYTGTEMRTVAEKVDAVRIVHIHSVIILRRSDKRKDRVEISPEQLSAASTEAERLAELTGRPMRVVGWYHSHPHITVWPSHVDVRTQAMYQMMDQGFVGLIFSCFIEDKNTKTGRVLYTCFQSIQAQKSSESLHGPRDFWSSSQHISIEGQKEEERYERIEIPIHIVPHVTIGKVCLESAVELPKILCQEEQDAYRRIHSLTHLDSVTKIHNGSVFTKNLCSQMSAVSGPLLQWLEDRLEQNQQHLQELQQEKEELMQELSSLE

B1: GST-BRCA1 fragment F2 (BRCA1 residues 260-553) (other)
chain: KYQGSSVSNLHVEPCGTNTHASSLQHENSSLLLTKDRMNVEKAEFCNKSKQPGLARSQHNRWAGSKETCNDRRTPSTEKKVDLNADPLCERKEWNKQKLPCSENPRDTEDVPWITLNSSIQKVNEWFSRSDELLGSDDSHDGESESNAKVADVLDVLNEVDEYSGSSEKIDLLASDPHEALICKSERVHSKSVESNIEDKIFGKTYRKKASLPNLSHVTENLIIGAFVTEPQIIQERPLTNKLKRKRRPTSGLHPEDFIKKADLAVQKTPEMINQGTNQTEQNGQVMNITNSGH
notes: Produced in bacteria; also called fragment 2; not shown: glutathione S-transferase (GST) fusion tag
B1: the binding result in experiment [1] and in experiment [2] was “no binding” each time.

B2: BRE (other)
chain: MSPEVALNRISPMLSPFISSVVRNGKVGLDATNCLRITDLKSGCTSLTPGPNCDRFKLHIPYAGETLKWDIIFNAQYPELPPDFIFGEDAEFLPDPSALQNLASWNPSNPECLLLVVKELVQQYHQFQCSRLRESSRLMFEYQTLLEEPQYGENMEIYAGKKNNWTGEFSARFLLKLPVDFSNIPTYLLKDVNEDPGEDVALLSVSFEDTEATQVYPKLYLSPRIEHALGGSSALHIPAFPGGGCLIDYVPQVCHLLTNKVQYVIQGYHKRREYIAAFLSHFGTGVVEYDAEGFTKLTLLLMWKDFCFLVHIDLPLFFPRDQPTLTFQSVYHFTNSGQLYSQAQKNYPYSPRWDGNEMAKRAKGCQGSRDACSPWEQVLAFAVAKTGCKLLQPQRNWPSSRGPPWRASEGERTAQ
notes: also called BRCC45; BRCC45/BRE
B2: the binding result with truncated BRCA1 (1-509) was “no binding”.

B3: GST-BRCA1 fragment F4 (BRCA1 residues 758-1064) (other)
chain: LQTERSVESSSISLVPGTDYGTQESISLLEVSTLGKAKTEPNKCVSQCAAFENPKGLIHGCSKDNRNDTEGFKYPLGHEVNHSRETSIEMEESELDAQYLQNTFKVSKRQSFAPFSNPGNAEEECATFSAHSGSLKKQSPKVTFECEQKEENQGKNESNIKPVQTVNITAGFPVVGQKDKPVDNAKCSIKGGSRFCLSSQFRGNETGLITPNKHGLLQNPYRIPPLFPIKSFVKTKCKKNLLEENFEEHSMSPEREMGNENIPSTVSTISRNNIRENVFKEASSSNINEVGSSTNEVGSSINEIGSS
notes: Produced in bacteria; also called fragment 4; not shown: glutathione S-transferase (GST) fusion tag
With B3, the binding result in experiment [1] is listed as “no binding”.

B4: GST-BRCA1 fragment F3 (BRCA1 residues 502-802) (other)
chain: LKRKRRPTSGLHPEDFIKKADLAVQKTPEMINQGTNQTEQNGQVMNITNSGHENKTKGDSIQNEKNPNPIESLEKESAFKTKAEPISSSISNMELELNIHNSKAPKKNRLRRKSSTRHIHALELVVSRNLSPPNCTELQIDSCSSSEEIKKKKYNQMPVRHSRNLQLMEGKEPATGAKKSNKPNEQTSKRHDSDTFPELKLTNAPGSFTKCSNTSELKEFVNPSLPREEKEEKLETVKVSNNAEDPKDLMLSGERVLQTERSVESSSISLVPGTDYGTQESISLLEVSTLGKAKTEPNKCV
notes: Produced in bacteria; also called fragment 3; not shown: glutathione S-transferase (GST) fusion tag
On to B4, for which the binding result in experiment [1] is listed as “no binding”.

B5: GST-BRCA1 fragment F1 (BRCA1 residues 1-324) (other)
chain: MDLSALRVEEVQNVINAMQKILECPICLELIKEPVSTKCDHIFCKFCMLKLLNQKKGPSQCPLCKNDITKRSLQESTRFSQLVEELLKIICAFQLDTGLEYANSYNFAKKENNSPEHLKDEVSIIQSMGYRNRAKRLLQSEPENPSLQETSLSVQLSNLGTVRTLRTKQRIQPQKTSVYIELGSDSSEDTVNKATYCSVGDQELLQITPQGTRDEISLDSAKKAACEFSETDVTNTEHHQPSNNDLNTTEKRAAERHPEKYQGSSVSNLHVEPCGTNTHASSLQHENSSLLLTKDRMNVEKAEFCNKSKQPGLARSQHNRWAGS
notes: Produced in bacteria; also called fragment 1; not shown: glutathione S-transferase (GST) fusion tag
As to B5, in experiment [1], the binding result is “no binding”.

B6: GST-BRCA1 fragment F5 (BRCA1 residues 1005-1313) (other)
chain: EHSMSPEREMGNENIPSTVSTISRNNIRENVFKEASSSNINEVGSSTNEVGSSINEIGSSDENIQAELGRNRGPKLNAMLRLGVLQPEVYKQSLPGSNCKHPEIKKQEYEEVVQTVNTDFSPYLISDNLEQPMGSSHASQVCSETPDDLLDDGEIKEDTSFAENDIKESSAVFSKSVQKGELSRSPSPFTHTHLAQGYRRGAKKLESSEENLSSEDEELPCFQHLLFGKVNNIPSQSTRHSTVATECLSKNTEENLLSLKNSLNDCSNQVILAKASQEHHLSEETKCSASLFSSQCSELEDLTANTNTQ
notes: Produced in bacteria; also called fragment 5; not shown: glutathione S-transferase (GST) fusion tag
As to B6, the binding result in experiment [1] and in experiment [2] was “no binding” throughout.
